Tests used:
[1] = target: yeast Golgi t-SNARE complex Sed5/Sec22/Bos1 with D196del Bos1, preassembled and reconstituted into acceptor liposomes (S. cerevisiae) (UniProt Q01590)
[2] = target: yeast Golgi t-SNARE complex Sed5/Sec22/Bos1 with G176W Bos1, preassembled and reconstituted into acceptor liposomes (S. cerevisiae) (UniProt Q01590)

B1: yeast Golgi v-SNARE Bet1, reconstituted into fluorescent donor liposomes (natural protein)
chain: MSSRFAGGNAYQRDTGRTQLFGPADGSNSLDDNVSSALGSTDKLDYSQSTLASLESQSEEQMGAMGQRIKALKSLSLKMGDEIRGSNQTIDQLGDTFHNTSVKLKRTFGNMMEMARRSGISIKTWLIIFFMVGVLFFWVWIT
For B1, the liposome fusion assay (NBD fluorescence), reduction in fusion against WT Bos1; still above the control without Bet1 (% reduction in fusion) [1] was 60 and the liposome fusion assay (NBD fluorescence), reduction in fusion against WT Bos1; still above the control without Bet1 (% reduction in fusion) [2] was 30.

Source: PMC5640804
